Assay results from patent US20090232837A1.

Biological target: RTQKEASI peptide (mammalian)
Assay: ELISA, peptide adsorbed to wells (10 mg/ml)

## Negative control (ELISA of Table 3)
  OD: 0.141 OD
